In patent publication EP4574844A1 (Numab Therapeutics AG, dated 2025):

B1: PRO2230 (scFv)
scFv: DIQMTQSPASLSASVGDRVTITCQASQSIGTYLAWYQQKPGKPPKLLIYRAFILASGVPSRFSGSGSGTDFTLTISSLQPEDFATYYCQSNFYSDSTTIGPNAFGTGTKVTVLGGGGGSGGGGSGGGGSGGGGSEVQLVESGGGLVQPGGSLRLSCAASGFSFNSDYWIYWVRQAPGKGLEWIASIYGGSSGNTQYASWAQGRFTISRDNSKNTVYLQMNSLRAEDTAVYFCARGYVDYGGATDLWGQGTLVTVSS
notes: anti-PDL1 scFv; also called 37-20-B03-sc09.1
B2: PRO4245 (scFv)
scFv: DIQMTQSPSSLSASVGDRVTITCQASQSIGTYLAWYQQKPGKPPKLLIYRGGILASGVPSRFSGSGSGTDFTLTISSLQPEDFATYYCQSNFYSDSTTIGPNAFGTGTKVTVLGGGGGSGGGGSGGGGSGGGGSQQLVESGGGLVQPGGSLRLSCAASGFSFNSDYWIYWVRQAPGKGLEWIASIYGGSSGNTQYASWAQGRFTISKDNSKNTVYLQMNSLRAEDSAVYFCARGYVDYGGATDLWGQGTLVKVSS
notes: anti-PDL1 scFv
B3: PRO5056 (antibody, human IgG1, kappa)
chain: DVQMTQSPSSLSASVGDRVTITCQASQSISSWVSWYQQKPGKPPKLLIYRGGYLESGVPSRFSASGSGTDFTLTISSLQPEDFATYYCQSTDSSTYGGAFGCGTKVTVLGGGGGSGGGGSGGGGSGGGGSQQVVESGGGLVQPGGSLRLSCAVSGIDLNSYAMTWVRQAPGKCLEWIGYIGSASSTYYASWASGRFTISKDNSKNTVYLQMNSLRAEDSAVYFCARGSTYINIWGQGTLVKVSSEPKSSDKTHTCPPCPAPELLGGPSVFLFPPKPKDTLMISRTPEVTCVVVDVSHEDPEVKFNWYVDGVEVHNAKTKPREEQYNSTYRVVSVLTVLHQDWLNGKEYKCKVSNKALPAPIEKTISKAKGQPREPQVYTLPPCREEMTKNQVSLSCAVKGFYPSDIAVEWESNGQPENNYKTTPPVLDSDGSFFLVSKLTVDKSRWQQGNVFSCSVMHEALHNHYTQKSLSLSPGKGGGGSGGGGSDIQMTQSPSSLSASVGDRVTITCQSSESVYSNNQLSWYQQKPGQPPKLLIYDASDLASGVPSRFSGSGSGTDFTLTISSLQPEDFATYYCAGGFSSSSDTAFGCGTKLTVLGGGGGSGGGGSGGGGSGGGGSEVQLVESGGGLVQPGGSLRLSCAASGFSLSSNAMGWVRQAPGKCLEYIGIISVGGFTYYASWAKGRFTISRDNSKNTVYLQMNSLRAEDSATYFCARDRHGGDSSGAFYLWGQGTLVKVSS
heavy: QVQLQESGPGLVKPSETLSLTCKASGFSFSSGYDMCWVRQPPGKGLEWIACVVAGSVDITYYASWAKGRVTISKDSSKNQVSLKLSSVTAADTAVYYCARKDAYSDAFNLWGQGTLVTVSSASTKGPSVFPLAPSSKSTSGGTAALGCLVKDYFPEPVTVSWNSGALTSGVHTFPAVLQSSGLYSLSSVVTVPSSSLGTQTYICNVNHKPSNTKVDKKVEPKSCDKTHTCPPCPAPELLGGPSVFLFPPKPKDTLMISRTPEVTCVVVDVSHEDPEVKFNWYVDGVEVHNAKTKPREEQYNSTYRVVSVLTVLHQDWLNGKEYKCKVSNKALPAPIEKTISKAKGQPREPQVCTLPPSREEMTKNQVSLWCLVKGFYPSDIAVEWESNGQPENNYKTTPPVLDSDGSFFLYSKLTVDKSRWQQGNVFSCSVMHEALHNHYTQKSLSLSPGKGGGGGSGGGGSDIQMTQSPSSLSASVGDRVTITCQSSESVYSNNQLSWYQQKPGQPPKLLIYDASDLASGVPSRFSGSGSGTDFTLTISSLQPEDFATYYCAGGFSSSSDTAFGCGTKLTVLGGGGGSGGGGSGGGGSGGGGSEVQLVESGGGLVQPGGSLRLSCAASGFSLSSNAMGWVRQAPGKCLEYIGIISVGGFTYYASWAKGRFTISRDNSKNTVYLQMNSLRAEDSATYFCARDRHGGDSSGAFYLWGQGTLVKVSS
light: DIQMTQSPSSLSASVGDRVTITCQASQSINDYLAWYQQKPGKAPKLLIYKGGTLASGVPSRFSGSGSGTDFTLTISSLQPEDFATYYCQQGYIITDIDNVFGQGTKVEIKRTVAAPSVFIFPPSDEQLKSGTASVVCLLNNFYPREAKVQWKVDNALQSGNSQESVTEQDSKDSTYSLSSTLTLSKADYEKHKVYACEVTHQGLSSPVTKSFNRGEC
notes: anti-PDL1 x CD47 x (hSA dummy domain); also called PRO5055 with dummy domain for LILRB2-BD
B4: PRO4673 (antibody)
chain 1: B3 chain
chain 2: not shown
B5: PRO4688 (antibody, human IgG1, kappa)
chain: B3 chain
heavy: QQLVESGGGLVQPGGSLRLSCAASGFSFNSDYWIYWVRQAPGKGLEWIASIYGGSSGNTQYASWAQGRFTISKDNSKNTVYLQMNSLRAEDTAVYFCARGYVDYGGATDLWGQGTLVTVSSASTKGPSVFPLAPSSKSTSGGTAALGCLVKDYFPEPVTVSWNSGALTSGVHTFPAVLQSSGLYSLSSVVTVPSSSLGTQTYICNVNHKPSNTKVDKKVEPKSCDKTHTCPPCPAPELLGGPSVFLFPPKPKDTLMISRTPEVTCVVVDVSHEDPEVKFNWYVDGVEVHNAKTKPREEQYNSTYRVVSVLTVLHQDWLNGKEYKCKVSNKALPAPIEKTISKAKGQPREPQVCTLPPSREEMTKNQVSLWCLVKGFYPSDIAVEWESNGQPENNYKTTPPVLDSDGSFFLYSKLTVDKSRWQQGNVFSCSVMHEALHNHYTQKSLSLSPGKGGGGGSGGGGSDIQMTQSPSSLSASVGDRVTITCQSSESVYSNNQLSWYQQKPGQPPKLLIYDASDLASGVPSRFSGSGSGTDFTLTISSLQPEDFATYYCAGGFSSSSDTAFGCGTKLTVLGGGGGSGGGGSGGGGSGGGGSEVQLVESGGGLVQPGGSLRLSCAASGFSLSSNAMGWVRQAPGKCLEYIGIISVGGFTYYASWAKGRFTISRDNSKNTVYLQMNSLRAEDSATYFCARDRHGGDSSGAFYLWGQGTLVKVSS
light: DIQMTQSPSSLSASVGDRVTITCQASQSIGTYLAWYQQKPGKPPKLLIYRGGILASGVPSRFSGSGSGTDFTLTISSLQPEDFATYYCQSNFYSDSTTIGPNAFGQGTKVEIKRTVAAPSVFIFPPSDEQLKSGTASVVCLLNNFYPREAKVQWKVDNALQSGNSQESVTEQDSKDSTYSLSSTLTLSKADYEKHKVYACEVTHQGLSSPVTKSFNRGEC
B6: PRO3703 (scFv)
scFv: DVQMTQSPSSLSASVGDRVTITCQASQSISSWVSWYQQKPGKPPKLLIYRGGYLESGVPSRFSASGSGTDFTLTISSLQPEDFATYYCQSTDSSTYGGAFGCGTKVTVLGGGGGSGGGGSGGGGSGGGGSQQVVESGGGLVQPGGSLRLSCAVSGIDLNSYAMTWVRQAPGKCLEWIGYIGSASSTYYASWASGRFTISKDNSKNTVYLQMNSLRAEDSAVYFCARGSTYINIWGQGTLVKVSS
notes: anti-CD47 scFv; also called 70-26-B04-sc03
B7: PRO3891 (scFv)
scFv: DIQMTQSPSSLSASVGDRVTITCQASQSINDYLAWYQQKPGKAPKLLIYKGGTLASGVPSRFSGSGSGTDFTLTISSLQPEDFATYYCQQGYIITDIDNVFGTGTKVTVLGGGGGSGGGGSGGGGSGGGGSQVQLQESGPGLVKPSETLSLTCKASGFSFSSGYDMCWVRQPPGKGLEWIACVVAGSVDITYYASWAKGRVTISKDSSKNQVSLKLSSVTAADSAVYYCARKDAYSDAFNLWGQGTLVKVSS
notes: anti-PDL1 scFv
B8: PRO4687 (antibody, human IgG1, kappa)
chain: DVQMTQSPSSLSASVGDRVTITCQASQSISSWVSWYQQKPGKPPKLLIYRGGYLESGVPSRFSASGSGTDFTLTISSLQPEDFATYYCQSTDSSTYGGAFGCGTKVTVLGGGGGSGGGGSGGGGSGGGGSQQVVESGGGLVQPGGSLRLSCAVSGIDLNSYAMTWVRQAPGKCLEWIGYIGSASSTYYASWASGRFTISKDNSKNTVYLQMNSLRAEDSAVYFCARGSTYINIWGQGTLVKVSSEPKSSDKTHTCPPCPAPELLGGPSVFLFPPKPKDTLMISRTPEVTCVVVDVSHEDPEVKFNWYVDGVEVHNAKTKPREEQYNSTYRVVSVLTVLHQDWLNGKEYKCKVSNKALPAPIEKTISKAKGQPREPQVYTLPPCREEMTKNQVSLSCAVKGFYPSDIAVEWESNGQPENNYKTTPPVLDSDGSFFLVSKLTVDKSRWQQGNVFSCSVMHEALHNHYTQKSLSLSPGKGGGGSGGGGSDVQMTQSPSSLSASVGDRVTITCQASQSIGSNLAWYQQKPGKPPKLLIYKGGTLESGVPSRFSGSGSGTDFTLTISSLQPEDFATYYCQSTAGSSRSGNYGYVFGCGTKVTVLGGGGGSGGGGSGGGGSGGGGSQQLVESGGGLVQPGGSLRLSCAASGFSFTNNYYMCWVRQAPGKCLEWIACMLVGAWGNTYYASWANGRFTISKDNSKNTVYLQMNSLRAEDSAVYFCARARDYTWTLGGDPETSGFNLWGQGTLVKVSS
heavy: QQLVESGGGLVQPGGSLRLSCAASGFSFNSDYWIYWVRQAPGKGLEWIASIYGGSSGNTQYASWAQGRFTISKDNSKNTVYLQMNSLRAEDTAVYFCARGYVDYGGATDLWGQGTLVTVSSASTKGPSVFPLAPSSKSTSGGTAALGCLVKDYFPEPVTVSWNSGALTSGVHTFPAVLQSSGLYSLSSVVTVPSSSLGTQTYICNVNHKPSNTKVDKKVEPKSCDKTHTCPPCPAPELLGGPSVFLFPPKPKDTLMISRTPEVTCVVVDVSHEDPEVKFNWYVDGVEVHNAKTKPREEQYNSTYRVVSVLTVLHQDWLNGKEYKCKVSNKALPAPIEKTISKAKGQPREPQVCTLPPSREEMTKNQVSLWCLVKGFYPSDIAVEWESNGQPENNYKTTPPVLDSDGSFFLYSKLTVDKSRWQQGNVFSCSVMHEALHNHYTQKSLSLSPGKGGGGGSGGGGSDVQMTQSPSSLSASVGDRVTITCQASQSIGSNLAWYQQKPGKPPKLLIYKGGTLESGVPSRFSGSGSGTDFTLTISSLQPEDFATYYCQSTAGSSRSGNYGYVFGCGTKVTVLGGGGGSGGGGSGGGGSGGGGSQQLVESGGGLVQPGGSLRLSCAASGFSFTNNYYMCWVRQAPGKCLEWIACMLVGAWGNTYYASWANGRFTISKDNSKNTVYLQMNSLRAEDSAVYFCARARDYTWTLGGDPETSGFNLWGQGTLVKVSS
light: B5 light
notes: trispecific anti-PDL1 x CD47 x LILRB2; PDL1-BD (37-20-B03-sc18) as Fab

Key:
[1] = biological target: T1, human PD-L1 on the cell surface (human, UniProt Q9NZQ7 19-290); assay: cell-based or functional assay
[2] = biological target: T2, recombinant human PDL1 (human, UniProt Q9NZQ7 19-238, limits assumed); assay: SPR
T2 construct: SPR antigen; also called CD274; B7-H1

[3] = biological target: T3, recombinant cynomolgus PDL1 (cynomolgus monkey, UniProt G7PSE7 19-238); assay: SPR
T3 construct: also called cynom; PDL1

[4] = biological target: T4, recombinant human CD47 (human, UniProt Q08722 19-139, limits assumed); assay: SPR, antigen immobilised, antibody as analyte
[5] = biological target: T2, recombinant human PDL1; assay: SPR, antigen immobilised, antibody as analyte
[6] = biological target: T1, human PD-L1 on the cell surface; assay: cell-based or functional assay; remark: listed apart in the source
[7] = biological target: T5, human CD47 on the cell surface (human, UniProt Q08722 19-323); assay: cell-based or functional assay
[8] = biological target: T5, human CD47 on the cell surface; assay: cell-based or functional assay; remark: listed apart in the source
[9] = biological target: T4, recombinant human CD47; assay: SPR, CD47 immobilised, scFv as analyte, 1:1 Langmuir
[10] = biological target: T6, human LILRB2 on the cell surface (human, UniProt Q8N423 22-597); assay: cell-based or functional assay
[11] = biological target: T7, recombinant human LILRB2 (human, UniProt Q8N423 22-460, limits assumed); assay: SPR, antibody captured by anti-framework IgG, antigen as analyte (without avidity)
T7 construct: also called ILT4

[12] = biological target: T6, human LILRB2 on the cell surface; assay: cell-based or functional assay; remark: listed apart in the source

T3 sequence (G7PSE7 entry or part of it): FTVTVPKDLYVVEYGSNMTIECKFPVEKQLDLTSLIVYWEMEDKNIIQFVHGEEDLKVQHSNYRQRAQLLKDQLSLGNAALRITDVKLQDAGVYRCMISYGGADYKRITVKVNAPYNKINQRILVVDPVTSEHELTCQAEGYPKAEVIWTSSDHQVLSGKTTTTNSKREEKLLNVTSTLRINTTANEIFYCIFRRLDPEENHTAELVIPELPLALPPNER
T7 sequence (Q8N423 22-460 limits assumed): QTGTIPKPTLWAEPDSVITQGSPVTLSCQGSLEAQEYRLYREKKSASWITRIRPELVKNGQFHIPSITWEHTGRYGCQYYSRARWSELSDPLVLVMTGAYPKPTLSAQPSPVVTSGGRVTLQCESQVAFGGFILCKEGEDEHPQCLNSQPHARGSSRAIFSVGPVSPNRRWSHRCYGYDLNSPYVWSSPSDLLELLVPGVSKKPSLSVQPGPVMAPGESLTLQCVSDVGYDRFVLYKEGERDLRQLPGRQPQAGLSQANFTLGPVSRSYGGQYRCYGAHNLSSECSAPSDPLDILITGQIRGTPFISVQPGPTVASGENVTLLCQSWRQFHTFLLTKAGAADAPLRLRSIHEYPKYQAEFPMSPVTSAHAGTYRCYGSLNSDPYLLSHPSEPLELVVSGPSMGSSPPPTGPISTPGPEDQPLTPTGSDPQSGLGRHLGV
T6 sequence (Q8N423 22-597): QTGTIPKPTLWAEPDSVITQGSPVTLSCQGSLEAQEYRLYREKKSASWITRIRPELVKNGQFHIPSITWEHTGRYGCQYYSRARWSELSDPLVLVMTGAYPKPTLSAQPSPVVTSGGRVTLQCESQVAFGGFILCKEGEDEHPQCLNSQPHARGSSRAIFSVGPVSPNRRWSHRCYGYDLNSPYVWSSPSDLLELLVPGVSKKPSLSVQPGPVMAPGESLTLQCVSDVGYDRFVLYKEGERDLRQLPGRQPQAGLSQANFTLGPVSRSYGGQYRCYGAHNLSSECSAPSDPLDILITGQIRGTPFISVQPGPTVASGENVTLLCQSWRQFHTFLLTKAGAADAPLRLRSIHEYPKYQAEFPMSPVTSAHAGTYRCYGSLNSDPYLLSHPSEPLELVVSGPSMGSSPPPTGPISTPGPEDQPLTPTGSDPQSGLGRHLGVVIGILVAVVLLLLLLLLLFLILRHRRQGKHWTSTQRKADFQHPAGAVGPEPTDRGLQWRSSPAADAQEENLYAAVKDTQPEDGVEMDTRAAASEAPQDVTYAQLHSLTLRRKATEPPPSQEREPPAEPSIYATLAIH

PDL1/PD-1 EC50 [nM], NFAT reporter gene assay [1]	PDL1/PD-1 Max. inhibition (rel. to avelumab) [%] [1]	Kd [2]	koff [2]	kon [2]	Kd [3]	koff [3]	kon [3]	PD-L1 driven EC50 [nM], phagocytosis of H292 cells [6]	CD47 driven EC50 [nM], phagocytosis of H292 cells [7]	other results	Binder
0.93 nM	91.8%	0.015 nM	9.3e-05 s⁻¹	6.3e+06 M⁻¹ s⁻¹	0.012 nM	8.4e-05 s⁻¹	7e+06 M⁻¹ s⁻¹	–	–	–	B1
1.81 nM	106%	0.036 nM	0.00014 s⁻¹	4e+06 M⁻¹ s⁻¹	0.032 nM	0.00014 s⁻¹	4.6e+06 M⁻¹ s⁻¹	–	–	–	B2
–	–	–	–	–	–	–	–	0.13 nM	54.3 nM	Kd [4]: 56.6 nM; koff [4]: 0.0249 s⁻¹; kon [4]: 439000 M⁻¹ s⁻¹; Kd [5]: 0.0105 nM; koff [5]: 2.13e-05 s⁻¹; kon [5]: 2.02e+06 M⁻¹ s⁻¹; CD47 driven EC50 [nM], phagocytosis of A375 cells [8]: 76.9 nM	B3
–	–	–	–	–	–	–	–	0.18 nM	11 nM	–	B4
–	–	–	–	–	–	–	–	0.08 nM	13.5 nM	–	B5
–	–	–	–	–	–	–	–	–	–	Kd [9]: 11.9 nM; koff [9]: 0.029 s⁻¹; kon [9]: 2.44e+06 M⁻¹ s⁻¹	B6
1.36 nM	94.6%	0.0041 nM	3.9e-05 s⁻¹	6e+06 M⁻¹ s⁻¹	0.0034 nM	2.9e-05 s⁻¹	5.9e+06 M⁻¹ s⁻¹	–	–	–	B7
–	–	–	–	–	–	–	–	0.043 nM	8.62 nM	Kd [4]: 25.2 nM; koff [4]: 0.0204 s⁻¹; kon [4]: 811000 M⁻¹ s⁻¹; Kd [5]: 0.0885 nM; koff [5]: 0.000116 s⁻¹; kon [5]: 1.31e+06 M⁻¹ s⁻¹; CD86 EC50 [nM], re-polarization of M2 macrophages [10]: 0.078 nM; CD163 EC50 [nM], re-polarization of M2 macrophages [10]: 0.07 nM; CD206 EC50 [nM], re-polarization of M2 macrophages [10]: 0.124 nM; Kd [11]: 0.36 nM; koff [11]: 9.3e-05 s⁻¹; kon [11]: 260000 M⁻¹ s⁻¹; IL-1β EC50 [nM], LPS-driven cytokine secretion [12]: 0.205 nM; IL-6 EC50 [nM], LPS-driven cytokine secretion [12]: 0.097 nM; TNF-α EC50 [nM], LPS-driven cytokine secretion [12]: 0.175 nM	B8
